In patent US20040175799:

Experiments:
[1] = target: Actin, bovine muscle, P68138
[2] = target: Aprotinin, bovine lung, P00974
[3] = target: Bovine serum albumin, bovine, P02769
[4] = target: Collagen, Type I, bovine Achilles tendon, P02453
[5] = target: Gelatin, Type B, bovine skin
[6] = target: Muscle acetone powder, chicken breast
[7] = target: T1, Myoglobin, horse skeletal muscle, P68082
T1 chain: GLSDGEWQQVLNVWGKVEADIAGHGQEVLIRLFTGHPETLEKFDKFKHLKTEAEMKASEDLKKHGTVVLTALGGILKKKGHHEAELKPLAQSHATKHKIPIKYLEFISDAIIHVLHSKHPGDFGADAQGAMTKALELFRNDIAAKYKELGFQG

[8] = target: T2, Ovalbumin, chichen egg, P01012
T2 chain: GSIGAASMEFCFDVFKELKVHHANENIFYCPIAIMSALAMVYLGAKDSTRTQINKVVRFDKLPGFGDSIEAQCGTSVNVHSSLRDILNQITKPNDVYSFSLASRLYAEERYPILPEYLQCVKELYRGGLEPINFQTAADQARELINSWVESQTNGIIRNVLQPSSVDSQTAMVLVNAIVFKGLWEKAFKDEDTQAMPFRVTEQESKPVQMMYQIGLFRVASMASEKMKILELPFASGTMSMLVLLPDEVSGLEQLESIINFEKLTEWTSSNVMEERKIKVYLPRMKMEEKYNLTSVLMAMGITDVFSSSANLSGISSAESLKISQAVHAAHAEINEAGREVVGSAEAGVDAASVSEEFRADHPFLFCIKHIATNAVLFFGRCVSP

[9] = target: T3, RNase A, bovine pancreas, P61823
T3 chain: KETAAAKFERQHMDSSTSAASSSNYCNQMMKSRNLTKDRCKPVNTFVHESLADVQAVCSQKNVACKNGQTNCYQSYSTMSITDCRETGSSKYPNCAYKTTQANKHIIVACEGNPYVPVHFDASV

[10] = target: α-Chymotrypsinogen A, bovine pancreas, P00766
[11] = target: T4, α-Lactoalbumin, bovine milk, P00711
T4 chain: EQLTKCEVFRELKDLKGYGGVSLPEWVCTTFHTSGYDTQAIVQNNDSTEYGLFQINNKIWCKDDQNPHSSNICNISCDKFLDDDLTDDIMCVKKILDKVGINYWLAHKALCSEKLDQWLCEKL

[12] = target: T5, β-Casein, bovine milk, P02666
T5 chain: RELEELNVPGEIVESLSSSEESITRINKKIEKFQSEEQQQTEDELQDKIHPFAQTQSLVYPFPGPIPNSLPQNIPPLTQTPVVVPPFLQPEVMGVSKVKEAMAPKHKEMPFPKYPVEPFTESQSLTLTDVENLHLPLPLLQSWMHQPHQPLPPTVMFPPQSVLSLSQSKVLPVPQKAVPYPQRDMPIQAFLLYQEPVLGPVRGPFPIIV

[13] = target: T6, β-Lactoglobulin, bovine milk, P02754
T6 chain: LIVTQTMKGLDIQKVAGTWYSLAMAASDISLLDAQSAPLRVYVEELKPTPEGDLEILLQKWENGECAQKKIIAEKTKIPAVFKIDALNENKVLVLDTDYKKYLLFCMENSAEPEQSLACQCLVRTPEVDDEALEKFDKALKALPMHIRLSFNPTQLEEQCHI

Bovine serum albumin, bovine, P02769, sequence (P02769 25-607): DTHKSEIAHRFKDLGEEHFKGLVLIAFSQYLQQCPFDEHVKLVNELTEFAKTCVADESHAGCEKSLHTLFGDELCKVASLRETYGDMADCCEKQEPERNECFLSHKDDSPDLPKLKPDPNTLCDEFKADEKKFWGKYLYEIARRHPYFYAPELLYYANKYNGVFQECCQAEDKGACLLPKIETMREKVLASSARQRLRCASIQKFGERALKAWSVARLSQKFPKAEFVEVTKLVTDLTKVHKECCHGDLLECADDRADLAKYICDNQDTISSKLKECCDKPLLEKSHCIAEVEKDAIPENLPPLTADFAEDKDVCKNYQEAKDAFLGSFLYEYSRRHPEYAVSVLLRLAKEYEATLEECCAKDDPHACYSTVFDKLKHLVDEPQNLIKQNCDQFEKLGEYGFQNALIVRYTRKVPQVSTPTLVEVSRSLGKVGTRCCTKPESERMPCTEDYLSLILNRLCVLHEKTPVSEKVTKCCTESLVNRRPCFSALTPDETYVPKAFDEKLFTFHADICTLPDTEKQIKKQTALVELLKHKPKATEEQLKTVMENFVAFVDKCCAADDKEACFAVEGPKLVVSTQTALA
Collagen, Type I, bovine Achilles tendon, P02453, sequence (P02453 162-1217, chain 1 of 2): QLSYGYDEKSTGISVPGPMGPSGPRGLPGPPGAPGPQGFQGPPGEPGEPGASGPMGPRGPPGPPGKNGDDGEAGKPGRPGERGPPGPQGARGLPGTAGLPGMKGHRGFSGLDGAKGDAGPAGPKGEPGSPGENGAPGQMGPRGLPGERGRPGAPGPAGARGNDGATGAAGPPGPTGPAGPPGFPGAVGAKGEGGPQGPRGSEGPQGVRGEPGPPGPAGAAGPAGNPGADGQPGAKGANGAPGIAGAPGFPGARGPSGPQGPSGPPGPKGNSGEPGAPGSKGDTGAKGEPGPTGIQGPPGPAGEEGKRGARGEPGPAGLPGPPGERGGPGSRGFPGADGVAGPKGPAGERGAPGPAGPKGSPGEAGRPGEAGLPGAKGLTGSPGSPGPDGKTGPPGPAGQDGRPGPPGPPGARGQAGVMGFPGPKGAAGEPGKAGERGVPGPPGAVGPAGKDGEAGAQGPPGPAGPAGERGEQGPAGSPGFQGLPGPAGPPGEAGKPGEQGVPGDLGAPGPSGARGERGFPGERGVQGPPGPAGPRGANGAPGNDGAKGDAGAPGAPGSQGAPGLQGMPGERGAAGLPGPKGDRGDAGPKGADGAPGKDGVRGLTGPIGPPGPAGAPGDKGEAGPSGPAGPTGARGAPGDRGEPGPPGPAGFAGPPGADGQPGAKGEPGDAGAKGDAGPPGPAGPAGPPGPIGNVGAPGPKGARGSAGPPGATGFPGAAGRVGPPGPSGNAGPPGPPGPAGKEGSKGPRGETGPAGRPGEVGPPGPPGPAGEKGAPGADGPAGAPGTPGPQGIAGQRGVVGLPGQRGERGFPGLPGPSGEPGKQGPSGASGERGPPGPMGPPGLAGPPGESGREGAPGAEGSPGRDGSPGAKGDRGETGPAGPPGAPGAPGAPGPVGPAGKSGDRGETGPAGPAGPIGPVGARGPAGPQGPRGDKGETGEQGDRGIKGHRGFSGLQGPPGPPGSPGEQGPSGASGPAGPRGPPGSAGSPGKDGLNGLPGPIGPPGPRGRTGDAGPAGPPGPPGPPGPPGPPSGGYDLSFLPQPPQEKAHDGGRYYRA
Collagen, Type I, bovine Achilles tendon, P02453, sequence (P02453 other isoform, or with tags, fused parts or gaps, chain 2 of 2): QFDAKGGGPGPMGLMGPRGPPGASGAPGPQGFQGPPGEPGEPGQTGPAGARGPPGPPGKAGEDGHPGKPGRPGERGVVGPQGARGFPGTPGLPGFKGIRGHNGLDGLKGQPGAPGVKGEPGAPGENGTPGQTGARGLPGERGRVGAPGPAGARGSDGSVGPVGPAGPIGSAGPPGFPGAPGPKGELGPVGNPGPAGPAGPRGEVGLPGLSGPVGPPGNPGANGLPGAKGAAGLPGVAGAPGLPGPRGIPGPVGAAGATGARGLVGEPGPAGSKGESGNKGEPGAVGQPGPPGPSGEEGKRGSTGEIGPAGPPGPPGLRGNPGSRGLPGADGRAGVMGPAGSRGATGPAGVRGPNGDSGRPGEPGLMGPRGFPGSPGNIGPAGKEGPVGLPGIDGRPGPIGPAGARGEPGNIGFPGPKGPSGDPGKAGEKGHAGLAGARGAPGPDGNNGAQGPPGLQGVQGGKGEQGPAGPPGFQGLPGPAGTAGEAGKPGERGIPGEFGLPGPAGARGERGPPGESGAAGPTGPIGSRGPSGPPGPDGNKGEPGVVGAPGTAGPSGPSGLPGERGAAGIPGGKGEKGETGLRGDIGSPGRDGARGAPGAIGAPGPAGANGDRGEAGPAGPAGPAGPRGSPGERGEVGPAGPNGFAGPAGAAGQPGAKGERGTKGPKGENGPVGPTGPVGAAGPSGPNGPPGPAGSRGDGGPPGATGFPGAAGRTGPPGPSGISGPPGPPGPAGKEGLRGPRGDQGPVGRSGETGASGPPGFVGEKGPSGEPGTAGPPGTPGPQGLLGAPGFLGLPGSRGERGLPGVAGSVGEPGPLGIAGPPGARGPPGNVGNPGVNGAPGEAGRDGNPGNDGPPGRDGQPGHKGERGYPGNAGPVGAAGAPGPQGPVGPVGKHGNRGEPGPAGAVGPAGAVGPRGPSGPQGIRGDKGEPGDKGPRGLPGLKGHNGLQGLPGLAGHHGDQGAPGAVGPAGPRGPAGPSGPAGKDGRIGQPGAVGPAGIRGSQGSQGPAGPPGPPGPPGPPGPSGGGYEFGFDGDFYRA

B1: protein-deamidating enzyme purified from Chryseobacterium sp. No. 9670 (protein)
chain: LASVIPDVATLNSLFNQIKNQSCGTSTASSPCITFRYPVDGCYARAHKMRQILMNNGYDCEKQFVYGNLKASTGTCCVAWSYHVAILVSYKNASGVTEKRIIDPSLFSSGPVTDTAWRNACVNTSCGSASVSSYANTAGNVYYRSPSNSYLYDNNLINTNCVLTKFSLLSGCSPSPAPDVSSCGF
- Ammonia releasing rate [1]: 0.45 µmol/min/mg
- Ammonia releasing rate [2]: 0.224 µmol/min/mg
- Ammonia releasing rate [3]: 0.009 µmol/min/mg
- Ammonia releasing rate [4]: 0.177 µmol/min/mg
- Ammonia releasing rate [5]: 0.696 µmol/min/mg
- Ammonia releasing rate (Gliadin, what (wheat)): 5.47 µmol/min/mg
- Ammonia releasing rate (Gluten, wheat): 7.2 µmol/min/mg
- deamidation ratio (Gluten, wheat): 74% in wheat gluten
- Ammonia releasing rate [6]: 0.21 µmol/min/mg
- Ammonia releasing rate [7]: 0.014 µmol/min/mg
- Ammonia releasing rate [8]: 0.005 µmol/min/mg
- Ammonia releasing rate [9]: 2.91 µmol/min/mg
- Ammonia releasing rate (Soy protein isolate): 1.17 µmol/min/mg
- Ammonia releasing rate (Zein, corn): 0.655 µmol/min/mg
- deamidation ratio (albumen protein): 7% in albumen protein
- deamidation ratio (milk caseinate): 60% in caseinate
- deamidation ratio (soybean protein): 20% in soybean protein
- deamidation ratio (whey protein): 23% in whey protein
- Ammonia releasing rate (α-Casein, bovine milk): 19.1 µmol/min/mg
- Ammonia releasing rate [10]: 0.65 µmol/min/mg
- Ammonia releasing rate [11]: 0.836 µmol/min/mg
- Ammonia releasing rate [12]: 18.1 µmol/min/mg
- Ammonia releasing rate [13]: 0.728 µmol/min/mg
